This experiment deals with full length nPIST (1st - 463rd aa) (mouse) (UniProt Q8BH60). The experiment in a line: SPR. On the technique in general: In SPR one partner is held on a chip, and binding of the other changes the refractive index at the surface.

pKd: −log10 of the molar value.

One may read the pKd as −log10 of the Kd, conventionally taken in molar units. A high value points to a small Kd. In general, koff refers to the rate constant with which the complex falls apart. The kon is the rate constant with which the complex forms. High values mean fast association, low ones slow association.

The substance “F-actin (filamentous actin) (from UniProt P68135 1-377) (natural protein)” gave a negative-log Kd (pKd) of 7.88, a koff of 0.00123 s⁻¹ and an association rate constant (kon) of 92500 M⁻¹ s⁻¹.

The values are drawn from article doi:10.1101/270363.
